Data on 21 sequences can be found in the DeepSol protein solubility set.

The nature of the data set: soluble on expression in E. coli; label from the status in PepcDB or PDB records.
Consider “MLERQQDSFRFICRTCPFYYQVEGKMERKVFGLQKKQEADILGGDKQWELADQTDTLCPRCSHGKAYFFQMQTRSADEPMSTFYRCVHCGHQWKEN”, for which the “soluble on expression in E. coli” value is on record as “soluble”.
In the case of “MHHHHHHSSGVDLGTENLYFQSMLAVHFDKPGGPENLYVKEVAKPSPGEGEVLLKVAASALNRADLMQRQGQYDPPPGASNILGLEASGHVAELGPGCQGHWKIGDTAMALLPGGGQAQYVTVPEGLLMPIPEGLTLTQAAAIPEAWLTAFQLLHLVGNVQAGDYVLIHAGLSGVGTAAIQLTRMAGAIPLVTAGSQKKLQMAEKLGAAAGFNYKKEDFSEATLKFTKGAGVNLILDCIGGSYWEKNVNCLALDGRWVLYGLMGGGDINGPLFSKLLFKRGSLITSLLRSRDNKYKQMLVNAFTEQILPHFSTEGPQRLLPVLDRIYPVTEIQEAHKYMEANKNIGKIVLELPQ” it was “soluble”.
In the case of “MKKILVTGSLGQIGSELVMKLRDVYGASNVIATDIRETDSEVVTSGPFETLDVTDGQKLHDIAKRNEVDTIIHLAALLSATAEKNPLFAWNLNMGGLVNALEAARELNCKFFTPSSIGAFGPSTPKDNTPQDTIQRPTTMYGVNKVAGELLCDYYHQKFGVDTRGVRFPGLISYVAPPGGGTTDYAVEIYYEAIKKGAYTSYIAEGTYMDMMYMPDALQAIISLMEADPSKLVHRNAFNITAMSFEPEQIAASIRKHIPTFTMDYAVDPARQTIADSWPNSIDATAAMKEWGFKAEYDLDKMTTDMLAKLKKKLTAELVMN” it was “not soluble”.
For “MDIKVHFHDFSHVRIDCEESTFHELRDFFSFEADGYRFNPRFRYGNWDGRIRLLDYNRLLPFGLVGQIKKFCDNFGYKAWIDPQINEKEELSRKDFDEWLSKLEIYSGNKRIEPHWYQKDAVFEGLVNRRRILNLPTSAGRSLIQALLARYYLENYEGKILIIVPTTALTTQMADDFVDYRLFSHAMIKKIGGGASKDDKYKNDAPVVVGTWQTVVKQPKEWFSQFGMMMNDECHLATGKSISSIISGLNNCMFKFGLSGSLRDGKANIMQYVGMFGEIFKPVTTSKLMEDGQVTELKINSIFLRYPDEFTTKLKGKTYQEEIKIITGLSKRNKWIAKLAIKLAQKDENAFVMFKHVSHGKAIFDLIKNEYDKVYYVSGEVDTETRNIMKTLAENGKGIIIVASYGVFSTGISVKNLHHVVLAHGVKSKIIVLQTIGRVLRKHGSKTIATVWDLIDDAGVKPKSANTKKKYVHLNYLLKHGIDRIQRYADEKFNYVMKTVNLLEHHHHHH” the value was “soluble”; for “MGSDKIHHHHHHMKKLLLTAAITLTMPFAAHAGSEFVEGDATLAGEAELGATLTTGNTDTSSFKARLALKQELGDWENEYVFEGLYKEDTEEVTAKRYFLGVQGDYQINDVSYLFANTNYEVDPFTGYDFTSTTSAGYGHRFIDTDRMSLKAEAGPGYIYQQLDEESALAEGYDSDDSVVAHAVIDFQTKISDSSKFQQKFVADWGSKLDARSETSLTANIVGALAMKFAVIVRYNSEPLDDKESTDTETNMTLLYAF”, “not soluble”.
On to “NKLAQKYDHQREQELREWIEGVTGRRIGNNFMDGLKDGIILCEFINKLQPGSVKKINESTQNWHQLENIGNFIKAITKYGVKPHDIFEANDLFENTNHTQVQSTLLALASMAKTKGNKVNVGV”, for which the “soluble on expression in E. coli” value was “soluble”.
For “GMTTSEHIAALTALVETYVMAMTRGDRPALERIFFGKASEVGHYEGELLWNSRDAFIAMCEDAADAETDPFWAISSVSVQGDIAMLHVENDWAGMRFDDFLTVLLHEGSWRIVSKVYRIR” the value was “soluble”.
Consider “MFKKVLGLRHWNNNVVKIPPPAAESGANASDVVVDTPEPYERILCQKILMGISTIDIIRNAIIKSCEQLNIEKERINELNEQNDKARSSLKSLVEFITEIGTTSSDIGCRMGDLNTSLTQINACIKEIQKIANQTNLIAINSAIEAARVGDAGRGFSVISKEVKNLSEDVKHSSKSVSTLTSVIKDNTARVSEVLDNQQPVIDNITTNINQIVESIGIVIDKSLSMKSVMQYISTVQFLNIVKVDHVIWKMEVYKLLLNKDINSKITMHDQCRLGKWYYGFEGQQFSNYYSFRSLEAPHKEVHTAGHSALNYFAAGDMNAMSQELDRMERSSNEVVNQLEMLAVDLLKETTL”, for which the “soluble on expression in E. coli” value was “not soluble”.
In the case of “MSLTADPPACTVPAAGVSSTHKLVNGGAEKIVFKIKSSNNNEYRIAPVFGFVDPSGSKDVVITRTAGAPKEDKLVVHFASAPADATDAQAAFVAVAPAGTVTIPMSATA” it was “soluble”.
Regarding “MLVGLDIGTSKIVAIVAEVLEDGQLNIVGMGHTPSRGLKRGMVVNIESTVQAIQRALEEAELMADCKIHEVFVGIAGSHIKSVNSHGMVAIKDREVTKMDIDRVIETARAVTIPPDH”, the “soluble on expression in E. coli” value is “not soluble”.
In the case of “MAHHHHHHMGVGFQSKKLQNFCHSGAGEMCALENCIPRWGSFPCNAPGLTPVYELSSFENVELPLIFQKSNIGDLLASTSDSVGQLNGFQARHSNTEGIKSQVSYTSVALSTTNRENLFGWVDCAALPLCSSSTAGASILLVTLLTRESRGKSCMCILDDLVCQLSNGPFNWGCGGDCHDLISISLPSEPRNHAACPIILPIAKLSRKEIWLREAAPKMDVETIIYEGDNQQHLVDDVANGTNAGSCAVMEAGCRPETALGPENVKYGDNESVTQCEVTVDITPSTEPSARCLHFSECTTPVSSNRSFMEPIPLSNMESKALRCRKFDGTSYEVLRRRAHSDALSLILKKYSEHF” it was “not soluble”.
For the sequence “MENLKKYLEVAKIAALAGGQVLKENFGKVKKENIEEKGEKDFVSYVDKTSEERIKEVILKFFPDHEVVGEEMGAEGSGSEYRWFIDPLDGTKNYINGFPIFAVSVGLVKGEEPIVGAVYLPYFDKLYWGAKGLGAYVNGKRIKVKDNESLKHAGVVYGFPSRSRRDISIYLNIFKDVFYEVGSMRRPGAAAVDLCMVAEGIFDGMMEFEMKPWDITAGLVILKEAGGVYTLVGEPFGVSDIIAGNKALHDFILQVAKKYMEVAV”, the “soluble on expression in E. coli” value is “soluble”.
“MAHHHHHHMKPTKPLLYITGYGPFLEVTENPSATIAQSVAEQVRQSGEADVHHETLDVNLEAVSKYFNRLNESVTAHLEATHPENRVLLVNVGLHSREKEKVLRLEVRAFNELEGNPIDDELPLSTCKDSAFVKGCKLETTTALIEELNAIERNGSDHHEKPRWIISYDAGRYYCNYALYRGVKMQEALNSRVFAVFLHIVASTVVCMEEQVAQVRMLVSHLLKHMEAVE”: the “soluble on expression in E. coli” value is reported as “soluble”.
For “MESLKSNLFLTREAYLEAFETIMTPLKTAILTSEKPGVNFGSSGAVYDQQHAEMEALIRPLWGIGPYWVTCKDDVLRDAYVEKLIAGTDPSSPDYWGVIVDYDQYIVEAAALSLTLLLHKTYFWSCFSEKQQENIMVWLNKALGCKIPKNNWTFFKVLIRLALEGCGQVINQAELEEELALIECMYLGDGWYMDGKTTQRDYYISFAFHYYSLIYVKFMRERDPIRAKRFTERAVMFAQDYLYYFDEEGEALPYGRSQTYRFAQGAFFAALIFAEVEALPWGQIKTLLAKHLHCWMQQAIFTYDGRLSIGYHYENLVMAEGYNAPGSPYWAFKTFLLLAVDQDHPFWRAEPLAIKREEKRLIEKGNMLLIHPKMKTHVLGYPAGLWLENQAHAAAKYSKFVYSSRFGFSVPKAGARYEEGAFDNVLAVSRDGEYFRVKGKVHDFYLTEEQVYYKWLPFQEVEIETTIYPFGEWHVRVHEIVTSVPLKVREGGFSLPLLGKFSEKELGKEWARVDSGELCSQIVAIEGYDHAGILQPEPNTSLFFPRTSLPYLQKELPIGTHRLICLVGGVTREE” the value was “soluble”; for “MKRVFVFQDFKSQKFWSIDVRGTDVIVNYGKLGTDGQTQVKNFSSAGEAEKAAGKLIAEKTKKGYVETLEEVAKEMKVEAKKYALSYDEAEEGVNLMDKILKDKKLPSLKQITIGCWGYEGEDCSDIADGIVENKEKFAHFEGLFWGDIDFEEQEISWIEQVDLSPVLDAMPLLNNLKIKGTNNLSIGKKPRPNLKSLEIISGGLPDSVVEDILGSDLPNLEKLVLYVGVEDYGFDGDMNVFRPLFSKDRFPNLKWLGIVDAEEQNVVVEMFLESDILPQLETMDISAGVLTDEGARLLLDHVDKIKHLKFINMKYNYLSDEMKKELQKSLPMKIDVSDSQEYDDDYSYPMITELEHHHHHH”, “soluble”; for “MRVELFNPSIKKIIVKLSQLKGLWIVQLNLSKNRLSEKKFTDLAVLLSMLKAFGVTYLNLHFNNLGQKTGTELVALFKILKDSGISRLSLSANELYQKTGTELATLLTALSDSDIIQLDLSCNWLGQRQDAELIELFKAWSSTPIIDLDLTNNDLGKKSGIVLSEMFRALKVSSISHLGLRNNDLYQRTGAEFSSLLSAIKDSPVTHLDLSDNGLHLMVAAAFETLFDALKDSSVTHLNLCRNGIGHLDMFQMTAMFCSLQCTGVTHLDLGENSLELMTAEELAAIFQVFKDSRLIHLGLNDSYLNNRTTEDLHLIFNALPANIATIKLSLEELTEMSSEQRQTIQRRFPRAEQVILVNNMEGRELNPSLSLGDANVYRRLGFVGVSPLSLAGLASFFVASNNLRFAREVQKLLPDEVTERIVKNILG”, “not soluble”.
As to “MNGKEIGEKNSKKYSFEVDSRSVYKCVQCGTCRSVCPVFDVVGWESANTRGRMLIIKSLLEGRPPSEDVLPSLASCTTCGICAAKCPAGANPPEVVEAARAQLVKCGVTTEAQLEHHHHHH”, the “soluble on expression in E. coli” value is given as “not soluble”.
For “MTVLIAGAGIAGLSLGLTLHQIGVPFRIYEATAVLRPMGVGINLQPNAVRELLDLGLEAELDRIGVRTRQLGFYSKLGKTIWEEPRGIWAGYAWPQYSVHRGALQMMLYEALIARAGADCVVTGARAAGFETGPESATLILSDGRRVEGRLLIAADGIHSALRAQMYPNEGEPIWNGRVLWRATTRAPAYFGGGAMAMIGHDDLRLVSYPISEPDGDGMVEMNWIAEKRFPLDAAWKKEDWNRAADIGDFLPDFADWRFDWIDVPALIQGAEVVYEYPMVDRDPLPRWTGGSVTLMGDAAHPTYPVGSNGASQAILDARIIGARLLEHGITPRALAAYEAEVRPVTTAVGQANRAGGGPDGVLQRVEDLCGGDFDDIDTVIPHAELAAHAARYKSIAGFSIEELNARPRTIAEGARIPALEHHHHHH” the value was “not soluble”; for “GPGSMSKQLTFISAGATAAVLQSASAIVSKVAGGRVQTKTAKEAGRHAVVVGPETPIGVHTAVTEAPKSAQDPLFSGVSTVVVRAVLPRAAPDSVQLRDALDVYASAGIDTKEEVRSATEAFKKSAEVAVGKAKAKGVKRIVLVVKQASKHNCINELFKKISTETIESAGLTTEVVGTASVANQLIVNPESLGVVLLNDVAATEQIELAFAGVVGGVSRVYHTVEGGKISAGHSFKSVALAVAQELRELGLSSEADKVEAAASKNPRAVVSAL”, “not soluble”; for “MAHHHHHHMLRFTVPALVVFQNAYAPRVLNRMTPDRMELTMLILKERKKKVRYLGSNFQGFNDRVHLFNAQGGVRRGTRYIIETHHNRIQFKHRSRNNSMVDVRAVKMAGSQYDSIGNYTRMTWDNSLCTTNLLSDPNFKRHFKNMPKEETIGVLEEWGVRYILLDEIRKPSLMDCKYHKHHLYADKFWWSPSPETNHMRGDAEFKWKGNELIAYGDYNAHMQHPANFVTSSSSGSSGSGAATSKSAAAAAGSKKGASARPWFRRTVVVRKSQASDTKPLSTASKIAAAGTSK”, “soluble”.
For “MGSDKIHHHHHHMTTTSTPGLFERPITLPDADAQSRLAKLVGMDDKIRRLSNVLAVLINPAGLKEWLDQHHAHSTGLLDAVLRRPPLVVLSGDVGSGKTELAETIGDMVARQEGIDITLLPLSLSSRGQGRVGEMTQLVSAAFDHAFHEASKVKSSRGSRSRGGVILLVDEADALAQSREADQMHHEDRAGVNAFIRGIDRLANGHLPAAVLMCTNRLNALDPAVRRRAADILVFERPDEAQRLEVLHRRLGDAGFGKADLQSLVAATGEQAKRPYGFTYSDLTQRLLPAIVLDAYPQGPIKPSRAIELARAMAPTPPFKDSTARGC” the value was “not soluble”.
